Patent US20200199204A1 (UNITED STATES OF AMERICA AS REPRESENTED BY THE SECRETARY …, published 2020)

Tests used:
Test in all cases: cell-based or functional assay
HIV-1 Env of 3016.V5.c36 = HIV-1 Env of 3016.V5.c36 (HIV-1)
HIV-1 Env of WITO.33 = HIV-1 Env of WITO.33 (HIV-1)
HIV-1 Env of ZM109.4 = HIV-1 Env of ZM109.4 (HIV-1)
HIV-1 Env of TH976.17 = HIV-1 Env of TH976.17 (HIV-1)
HIV-1 Env of Q23.17 = HIV-1 Env of Q23.17 (HIV-1)
HIV-1 Env of ZM197.7 = HIV-1 Env of ZM197.7 (HIV-1)
HIV-1 Env of ZM53.12 = HIV-1 Env of ZM53.12 (HIV-1)
HIV-1 Env of Q168.a2 = HIV-1 Env of Q168.a2 (HIV-1)
HIV-1 Env of CAAN.A2 = HIV-1 Env of CAAN.A2 (HIV-1)
HIV-1 Env of ZM135.10a = HIV-1 Env of ZM135.10a (HIV-1)
HIV-1 Env of 96ZM651.02 = HIV-1 Env of 96ZM651.02 (HIV-1)
HIV-1 Env of MB539.2B7 = HIV-1 Env of MB539.2B7 (HIV-1)
HIV-1 Env of UG037.8 = HIV-1 Env of UG037.8 (HIV-1)
HIV-1 Env of Q769.d22 = HIV-1 Env of Q769.d22 (HIV-1)
HIV-1 Env of RHPA.7 = HIV-1 Env of RHPA.7 (HIV-1)
HIV-1 Env of CAP256.SU = HIV-1 Env of CAP256.SU (HIV-1)
HIV-1 Env of DU156.12 = HIV-1 Env of DU156.12 (HIV-1)
HIV-1 Env of MB201 = HIV-1 Env of MB201 (HIV-1)
HIV-1 Env of 191821.E6.1 = HIV-1 Env of 191821.E6.1 (HIV-1)
HIV-1 Env of RW020.2 = HIV-1 Env of RW020.2 (HIV-1)
HIV-1 Env of THRO.18 = HIV-1 Env of THRO.18 (HIV-1)
HIV-1 Env of REJO.67 = HIV-1 Env of REJO.67 (HIV-1)
HIV-1 Env of C1080.c3 = HIV-1 Env of C1080.c3 (HIV-1)
HIV-1 Env of CAP244.D3 = HIV-1 Env of CAP244.D3 (HIV-1)
HIV-1 Env of QH0692.42 = HIV-1 Env of QH0692.42 (HIV-1)
HIV-1 Env of CAP45.G3 = HIV-1 Env of CAP45.G3 (HIV-1)
HIV-1 Env of 6405.v4.c34 = HIV-1 Env of 6405.v4.c34 (HIV-1)
HIV-1 Env of AC10.29 = HIV-1 Env of AC10.29 (HIV-1)
HIV-1 Env of CNE3 = HIV-1 Env of CNE3 (HIV-1)
HIV-1 Env of BG505.w6m = HIV-1 Env of BG505.w6m (HIV-1)
HIV-1 Env of KER2008.12 = HIV-1 Env of KER2008.12 (HIV-1)
HIV-1 Env of SC422.8 = HIV-1 Env of SC422.8 (HIV-1)
HIV-1 Env of 0260.v5.c36 = HIV-1 Env of 0260.v5.c36 (HIV-1)
HIV-1 Env of PVO.04 = HIV-1 Env of PVO.04 (HIV-1)
HIV-1 Env of Q842.d12 = HIV-1 Env of Q842.d12 (HIV-1)
HIV-1 Env of ZM233.6 = HIV-1 Env of ZM233.6 (HIV-1)
HIV-1 Env of ZM214.15 = HIV-1 Env of ZM214.15 (HIV-1)
HIV-1 Env of TRJO.58 = HIV-1 Env of TRJO.58 (HIV-1)
HIV-1 Env of DU422.01 = HIV-1 Env of DU422.01 (HIV-1)
HIV-1 Env of ZM249.1 = HIV-1 Env of ZM249.1 (HIV-1)
HIV-1 Env of Q259.d2.17 = HIV-1 Env of Q259.d2.17 (HIV-1)
HIV-1 Env of CM244.ec1 = HIV-1 Env of CM244.ec1 (HIV-1)
HIV-1 Env of KER2018.11 = HIV-1 Env of KER2018.11 (HIV-1)
HIV-1 Env of DU172.17 = HIV-1 Env of DU172.17 (HIV-1)
HIV-1 Env of CAP210.E8 = HIV-1 Env of CAP210.E8 (HIV-1)
HIV-1 Env of Q461.e2 = HIV-1 Env of Q461.e2 (HIV-1)
HIV-1 Env of 6535.3 = HIV-1 Env of 6535.3 (HIV-1)
HIV-1 Env of TRO.11 = HIV-1 Env of TRO.11 (HIV-1)
HIV-1 Env of CAP256.PI = HIV-1 Env of CAP256.PI (HIV-1)

Measured: neutralization IC50

B1: CAP256-VRC26.03 (antibody, V domains shown)
VH: EVQLVESGGGVVQPGKSLRLSCAASRFSFNRYGMHWVRQAPGKGLEWVAAISYDGTDKYHADKVWGRFTISRDNSKNTLYLQMNSLRAEDTALYYCAKDLREDECEEWWSDYYDFGKQLPCRKSRGVAGIFDGWGQGTMVTVSS
VL: QSVLTQPPSVSAAPGQKVTISCSGSSSNIGNNFVSWYQQRPGTAPKILIYENNKRPSETPDRFSGSKSGTSATLAITGLQTADEAEYYCATWSASLSSARVFGTGTRITVLG
0.004 µg/mL: HIV-1 Env of CAP256.SU
4.76 µg/mL: HIV-1 Env of BG505.w6m
10.7 µg/mL: HIV-1 Env of CAP45.G3
0.008 µg/mL: HIV-1 Env of ZM53.12
0.118 µg/mL: HIV-1 Env of 3016.V5.c36
1.5 µg/mL: HIV-1 Env of ZM214.15
0.032 µg/mL: HIV-1 Env of ZM233.6
0.014 µg/mL: HIV-1 Env of Q259.d2.17
0.003 µg/mL: HIV-1 Env of CM244.ec1 | HIV-1 Env of KER2018.11
0.16 µg/mL: HIV-1 Env of ZM197.7
0.134 µg/mL: HIV-1 Env of DU422.01
0.117 µg/mL: HIV-1 Env of DU156.12
0.039 µg/mL: HIV-1 Env of ZM249.1
0.119 µg/mL: HIV-1 Env of C1080.c3
0.011 µg/mL: HIV-1 Env of CAP210.E8
> 50 µg/mL: all other assays above
